Publication PMC9482650, “Quantitative fragmentomics allow affinity mapping of interactomes” (Nature Communications, 2022)

B1: NET1, Q7Z628 (peptide)
chain: SGGKRKETLV
B2: HPV33-E6, P06427 (peptide)
chain: SRSRRRETAL
B3: FAT3, Q8TDW7 (peptide)
chain: FVETQHQTQV

Legend:
Experiment in all cases: holdup assay
Set-up in all cases: key: below the threshold = too weak to quantify, mostly under pKd 3.1 to 4
Conditions in all cases: plain residues with an end cap or a label only (N-terminal biotin on a linker: ttds)
IL16_1, Q14005 = biological target: IL16_1, Q14005
SNTA1, Q13424 = biological target: T1, SNTA1, Q13424
T1 sequence (Q13424 82-180, limits assumed, looked up): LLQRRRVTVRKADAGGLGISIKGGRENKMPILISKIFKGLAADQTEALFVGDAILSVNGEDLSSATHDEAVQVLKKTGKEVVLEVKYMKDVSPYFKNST

DFNB31_1, Q9P202 = biological target: T2, DFNB31_1, Q9P202
T2 sequence (Q9P202 135-233, limits assumed, looked up): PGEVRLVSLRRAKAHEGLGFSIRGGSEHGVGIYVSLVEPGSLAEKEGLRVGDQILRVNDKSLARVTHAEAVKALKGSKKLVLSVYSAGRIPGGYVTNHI

SIPA1L2, Q9P2F8 = biological target: T3, SIPA1L2, Q9P2F8
T3 sequence (Q9P2F8 945-1036, limits assumed, looked up): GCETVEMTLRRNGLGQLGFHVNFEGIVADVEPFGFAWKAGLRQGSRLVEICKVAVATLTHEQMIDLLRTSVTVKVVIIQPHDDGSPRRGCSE

GRIP2_5, Q9C0E4 = biological target: GRIP2_5, Q9C0E4
APBA2_2, Q99767 = biological target: T4, APBA2_2, Q99767
T4 sequence (Q99767 654-744, limits assumed, looked up): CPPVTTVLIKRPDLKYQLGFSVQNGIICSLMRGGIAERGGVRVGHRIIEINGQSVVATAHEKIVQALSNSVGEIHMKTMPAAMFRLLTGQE

DLG4_1, P78352 = biological target: DLG4_1, P78352
TJP1_3, Q07157 = biological target: TJP1_3, Q07157
PTPN13_1, Q12923 = biological target: T5, PTPN13_1, Q12923
T5 sequence (Q12923 1088-1188, limits assumed, looked up): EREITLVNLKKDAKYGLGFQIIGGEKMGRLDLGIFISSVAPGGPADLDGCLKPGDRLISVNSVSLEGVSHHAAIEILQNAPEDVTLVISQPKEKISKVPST

PDZD7_3, Q9H5P4 = biological target: T6, PDZD7_3, Q9H5P4
T6 sequence (Q9H5P4 857-944, limits assumed, looked up): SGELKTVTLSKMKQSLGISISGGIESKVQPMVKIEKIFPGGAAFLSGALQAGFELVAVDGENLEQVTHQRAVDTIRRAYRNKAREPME

PTPN3, P26045 = biological target: PTPN3, P26045
MAST2, Q6P0Q8 = biological target: MAST2, Q6P0Q8
DVL3, Q92997 = biological target: T7, DVL3, Q92997
T7 sequence (Q92997 244-331, limits assumed, looked up): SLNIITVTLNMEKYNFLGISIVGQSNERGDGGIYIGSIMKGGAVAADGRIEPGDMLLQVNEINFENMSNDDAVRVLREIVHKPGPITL

ARHGEF12, Q9NZN5-2 = biological target: ARHGEF12, Q9NZN5-2
GRIP2_4, Q9C0E4 = biological target: GRIP2_4, Q9C0E4
HTRA2, O43464 = biological target: HTRA2, O43464
DLG3_1, Q92796 = biological target: T8, DLG3_1, Q92796
T8 sequence (Q92796 125-227, limits assumed, looked up): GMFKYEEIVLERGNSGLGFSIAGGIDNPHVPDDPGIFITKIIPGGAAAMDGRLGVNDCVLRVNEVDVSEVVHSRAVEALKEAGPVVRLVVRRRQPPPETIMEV

PDLIM1, O00151 = biological target: PDLIM1, O00151
SHANK1, Q9Y566 = biological target: T9, SHANK1, Q9Y566
T9 sequence (Q9Y566 658-767, limits assumed, looked up): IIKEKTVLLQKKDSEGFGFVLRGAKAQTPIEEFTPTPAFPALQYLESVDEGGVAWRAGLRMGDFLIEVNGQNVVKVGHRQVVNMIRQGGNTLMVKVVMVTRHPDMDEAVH

DLG4_2, P78352 = biological target: DLG4_2, P78352
MAGI1_2, Q96QZ7 = biological target: MAGI1_2, Q96QZ7
MAGI2_4, Q86UL8 = biological target: MAGI2_4, Q86UL8
APBA2_1, Q99767 = biological target: T10, APBA2_1, Q99767
T10 sequence (Q99767 563-664, limits assumed, looked up): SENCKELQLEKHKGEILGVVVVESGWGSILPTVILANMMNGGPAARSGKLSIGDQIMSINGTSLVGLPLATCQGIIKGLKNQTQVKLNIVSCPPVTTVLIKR

TJP1_2, Q07157 = biological target: TJP1_2, Q07157
NHERF3_4, Q5T2W1 = biological target: T11, NHERF3_4, Q5T2W1
T11 sequence (Q5T2W1 373-468, limits assumed, looked up): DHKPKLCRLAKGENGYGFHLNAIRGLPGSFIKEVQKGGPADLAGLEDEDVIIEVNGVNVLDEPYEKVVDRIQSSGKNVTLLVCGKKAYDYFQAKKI

Inadl_9, Q8NI35 = biological target: Inadl_9, Q8NI35
Chain of Inadl_9, Q8NI35 (Q8NI35 1530-1615): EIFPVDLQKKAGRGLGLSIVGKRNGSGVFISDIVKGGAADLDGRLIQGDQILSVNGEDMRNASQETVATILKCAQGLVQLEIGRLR

Chain of MAST2, Q6P0Q8 (Q6P0Q8 1099-1202): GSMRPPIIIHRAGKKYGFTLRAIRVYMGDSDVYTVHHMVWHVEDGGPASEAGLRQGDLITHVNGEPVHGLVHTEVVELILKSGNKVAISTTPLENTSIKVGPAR
Chain of GRIP2_5, Q9C0E4 (Q9C0E4 544-642): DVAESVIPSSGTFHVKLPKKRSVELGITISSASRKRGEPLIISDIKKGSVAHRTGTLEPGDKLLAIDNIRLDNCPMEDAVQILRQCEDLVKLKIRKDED
Chain of HTRA2, O43464 (O43464 355-458): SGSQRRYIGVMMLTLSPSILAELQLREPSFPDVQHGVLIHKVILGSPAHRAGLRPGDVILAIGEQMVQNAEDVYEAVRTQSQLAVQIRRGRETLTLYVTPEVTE
Chain of IL16_1, Q14005 (Q14005 210-306): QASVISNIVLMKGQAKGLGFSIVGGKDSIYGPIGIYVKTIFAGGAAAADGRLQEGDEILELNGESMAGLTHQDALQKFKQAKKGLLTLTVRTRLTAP
Chain of PDLIM1, O00151 (O00151 1-87): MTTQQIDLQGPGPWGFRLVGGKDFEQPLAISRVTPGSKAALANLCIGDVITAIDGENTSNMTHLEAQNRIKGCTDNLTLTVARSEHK
Chain of TJP1_2, Q07157 (Q07157 181-274): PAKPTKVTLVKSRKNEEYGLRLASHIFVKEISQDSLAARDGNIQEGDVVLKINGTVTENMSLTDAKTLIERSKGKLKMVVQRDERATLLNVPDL
Chain of PTPN3, P26045 (P26045 505-587): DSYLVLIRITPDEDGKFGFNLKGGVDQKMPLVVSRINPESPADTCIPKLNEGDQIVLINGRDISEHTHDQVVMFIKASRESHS
Chain of DLG4_1, P78352 (P78352 62-152): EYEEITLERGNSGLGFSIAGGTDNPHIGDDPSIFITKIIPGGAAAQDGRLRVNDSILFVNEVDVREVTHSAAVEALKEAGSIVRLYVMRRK
Chain of MAGI1_2, Q96QZ7 (Q96QZ7 456-580): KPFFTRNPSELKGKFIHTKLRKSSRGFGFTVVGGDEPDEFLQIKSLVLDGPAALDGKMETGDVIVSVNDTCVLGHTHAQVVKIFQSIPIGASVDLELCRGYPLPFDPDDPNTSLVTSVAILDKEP
Chain of ARHGEF12, Q9NZN5-2 (Q9NZN5 other isoform, or with tags, fused parts or gaps): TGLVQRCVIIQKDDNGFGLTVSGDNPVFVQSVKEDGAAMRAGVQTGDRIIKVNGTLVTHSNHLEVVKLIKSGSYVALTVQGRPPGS
Chain of GRIP2_4, Q9C0E4 (Q9C0E4 446-548): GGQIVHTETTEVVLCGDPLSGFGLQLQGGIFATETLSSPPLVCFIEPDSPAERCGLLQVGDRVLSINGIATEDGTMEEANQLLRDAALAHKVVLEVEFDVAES
Chain of DLG4_2, P78352 (P78352 155-259): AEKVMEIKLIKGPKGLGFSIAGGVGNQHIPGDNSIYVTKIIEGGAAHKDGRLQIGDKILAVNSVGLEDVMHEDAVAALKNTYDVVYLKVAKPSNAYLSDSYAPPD
Chain of MAGI2_4, Q86UL8 (Q86UL8 772-865): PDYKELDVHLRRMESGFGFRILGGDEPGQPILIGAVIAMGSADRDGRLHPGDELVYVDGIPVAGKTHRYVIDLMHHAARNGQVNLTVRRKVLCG
Chain of TJP1_3, Q07157 (Q07157 416-512): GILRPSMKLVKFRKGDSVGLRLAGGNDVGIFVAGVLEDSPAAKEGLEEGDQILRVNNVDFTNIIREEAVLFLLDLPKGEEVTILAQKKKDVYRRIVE

Row | Binder | pKd (IL16_1, Q14005) | pKd (SNTA1, Q13424) | pKd (DFNB31_1, Q9P202) | pKd (SIPA1L2, Q9P2F8) | pKd (GRIP2_5, Q9C0E4) | pKd (APBA2_2, Q99767) | pKd (DLG4_1, P78352) | pKd (TJP1_3, Q07157) | pKd (PTPN13_1, Q12923) | pKd (PDZD7_3, Q9H5P4) | pKd (PTPN3, P26045) | pKd (MAST2, Q6P0Q8) | pKd (DVL3, Q92997) | pKd (ARHGEF12, Q9NZN5-2) | pKd (GRIP2_4, Q9C0E4) | pKd (HTRA2, O43464) | pKd (DLG3_1, Q92796) | pKd (PDLIM1, O00151) | pKd (SHANK1, Q9Y566) | pKd (DLG4_2, P78352) | also measured
1 | B1 | below the threshold | 4.25 | below the threshold | below the threshold | below the threshold | below the threshold | 5.21 | below the threshold | below the threshold | 4.54 | 4.66 | 4.49 | below the threshold | 3.74 | below the threshold | below the threshold | 4.61 | below the threshold | below the threshold | 5.77 | pKd (MAGI1_2, Q96QZ7): 5.72; pKd (MAGI2_4, Q86UL8): 4.75; pKd (APBA2_1, Q99767): below the threshold; pKd (TJP1_2, Q07157): below the threshold; pKd (NHERF3_4, Q5T2W1): below the threshold; pKd (Inadl_9, Q8NI35): 3.66
2 | B2 | below the threshold | 4.66 | 3.77 | below the threshold | below the threshold | below the threshold | 4.57 | below the threshold | below the threshold | 4.65 | 5.01 | 5.37 | below the threshold | 4.78 | below the threshold | 3.46 | 3.79 | below the threshold | 3.51 | 4.77 | pKd (MAGI1_2, Q96QZ7): 5.67; pKd (MAGI2_4, Q86UL8): below the threshold; pKd (APBA2_1, Q99767): below the threshold; pKd (TJP1_2, Q07157): below the threshold; pKd (NHERF3_4, Q5T2W1): 3.97; pKd (Inadl_9, Q8NI35): below the threshold
3 | B3 | below the threshold | 4.09 | 3.48 | below the threshold | below the threshold | below the threshold | 4.36 | below the threshold | below the threshold | 4.11 | 4.12 | 5.39 | 3.65 | 3.88 | below the threshold | below the threshold | 3.85 | below the threshold | 3.63 | 4.57 | pKd (MAGI1_2, Q96QZ7): 3.93; pKd (MAGI2_4, Q86UL8): 3.91; pKd (APBA2_1, Q99767): below the threshold; pKd (TJP1_2, Q07157): below the threshold; pKd (NHERF3_4, Q5T2W1): below the threshold; pKd (Inadl_9, Q8NI35): 3.61
